Source: paper PMC5959011

How the values were obtained:
[1] = target: smallest capsid protein (SCP) VP26 (herpes simplex virus type 1 (HSV-1), strain KOS) (UniProt P10219); assay: cryo-EM structure
[2] = target: tegument protein pUL25 (herpes simplex virus type 1 (HSV-1), strain KOS) (UniProt P10209); assay: cryo-EM structure

Substance | stoichiometry N [1] | stoichiometry N [2]
smallest capsid protein (SCP) VP26 (from UniProt P10219 1-112) (natural protein) | 6 | 
tegument protein pUL25 (from UniProt P10209 1-580) (natural protein) |  | 2
